B1: DnaJ homolog subfamily C member 2, residues 451 to 503; numbered along this chain, Q99543 (parent)
chain: SKNWSEDDLQLLIKAVNLFPAGTNSRWEVIANYMNIHSSSGVKRTAKDVIGKA

The values below come from the Human Domainome abundance scans (Beltran et al. 2025).

± gives the uncertainty stated by the source.

In the data set the parent is B1. Nature of the data set: abundance fitness (aPCA) (normalised: wild type 0, dead -1); higher = more abundant; growth selection in yeast, the domain comes from the species named. The note with it: Homo sapiens.
Take SKNFSEDDLQLLIKAVNLFPAGTNSRWEVIANYMNIHSSSGVKRTAKDVIGKA [W4F]: the abundance fitness is -0.104 ± 0.16.
In the case of SKNPSEDDLQLLIKAVNLFPAGTNSRWEVIANYMNIHSSSGVKRTAKDVIGKA [W4P], the abundance fitness was -0.828 ± 0.1.
As for SKNKSEDDLQLLIKAVNLFPAGTNSRWEVIANYMNIHSSSGVKRTAKDVIGKA [W4K], the abundance fitness is -0.758 ± 0.12.
In the case of SKNCSEDDLQLLIKAVNLFPAGTNSRWEVIANYMNIHSSSGVKRTAKDVIGKA [W4C] it was -0.704 ± 0.093; in that of SKNMSEDDLQLLIKAVNLFPAGTNSRWEVIANYMNIHSSSGVKRTAKDVIGKA [W4M], -0.06 ± 0.079; in that of SKNESEDDLQLLIKAVNLFPAGTNSRWEVIANYMNIHSSSGVKRTAKDVIGKA [W4E], -0.825 ± 0.12.
With SKNLSEDDLQLLIKAVNLFPAGTNSRWEVIANYMNIHSSSGVKRTAKDVIGKA [W4L], the abundance fitness is -0.229 ± 0.063.
In the case of SKNISEDDLQLLIKAVNLFPAGTNSRWEVIANYMNIHSSSGVKRTAKDVIGKA [W4I] it was -0.465 ± 0.12; in that of SKNDSEDDLQLLIKAVNLFPAGTNSRWEVIANYMNIHSSSGVKRTAKDVIGKA [W4D], -0.808 ± 0.097; in that of SKNASEDDLQLLIKAVNLFPAGTNSRWEVIANYMNIHSSSGVKRTAKDVIGKA [W4A], -0.639 ± 0.074.
In the case of SCNWSEDDLQLLIKAVNLFPAGTNSRWEVIANYMNIHSSSGVKRTAKDVIGKA [K2C] it was -0.274 ± 0.1; in that of SFNWSEDDLQLLIKAVNLFPAGTNSRWEVIANYMNIHSSSGVKRTAKDVIGKA [K2F], -0.314 ± 0.17; in that of SANWSEDDLQLLIKAVNLFPAGTNSRWEVIANYMNIHSSSGVKRTAKDVIGKA [K2A], -0.259 ± 0.084.
SENWSEDDLQLLIKAVNLFPAGTNSRWEVIANYMNIHSSSGVKRTAKDVIGKA [K2E]: the abundance fitness is -0.096 ± 0.073.
Consider SQNWSEDDLQLLIKAVNLFPAGTNSRWEVIANYMNIHSSSGVKRTAKDVIGKA [K2Q], for which the abundance fitness is -0.375 ± 0.12.
In the case of SMNWSEDDLQLLIKAVNLFPAGTNSRWEVIANYMNIHSSSGVKRTAKDVIGKA [K2M] it was -0.076 ± 0.095; in that of STNWSEDDLQLLIKAVNLFPAGTNSRWEVIANYMNIHSSSGVKRTAKDVIGKA [K2T], -0.017 ± 0.081; in that of SINWSEDDLQLLIKAVNLFPAGTNSRWEVIANYMNIHSSSGVKRTAKDVIGKA [K2I], 0.1 ± 0.11.
In the case of SGNWSEDDLQLLIKAVNLFPAGTNSRWEVIANYMNIHSSSGVKRTAKDVIGKA [K2G] it was -0.159 ± 0.064; in that of SVNWSEDDLQLLIKAVNLFPAGTNSRWEVIANYMNIHSSSGVKRTAKDVIGKA [K2V], -0.365 ± 0.077; in that of SLNWSEDDLQLLIKAVNLFPAGTNSRWEVIANYMNIHSSSGVKRTAKDVIGKA [K2L], -0.287 ± 0.067.
In the case of SHNWSEDDLQLLIKAVNLFPAGTNSRWEVIANYMNIHSSSGVKRTAKDVIGKA [K2H] it was -0.214 ± 0.14; in that of SNNWSEDDLQLLIKAVNLFPAGTNSRWEVIANYMNIHSSSGVKRTAKDVIGKA [K2N], 0.076 ± 0.18; in that of SDNWSEDDLQLLIKAVNLFPAGTNSRWEVIANYMNIHSSSGVKRTAKDVIGKA [K2D], -0.044 ± 0.096.
As to SSNWSEDDLQLLIKAVNLFPAGTNSRWEVIANYMNIHSSSGVKRTAKDVIGKA [K2S], the abundance fitness was -0.059 ± 0.079.
Take SYNWSEDDLQLLIKAVNLFPAGTNSRWEVIANYMNIHSSSGVKRTAKDVIGKA [K2Y]: the abundance fitness was -0.138 ± 0.18.
As to SWNWSEDDLQLLIKAVNLFPAGTNSRWEVIANYMNIHSSSGVKRTAKDVIGKA [K2W], the abundance fitness was -0.334 ± 0.076.
In the case of SRNWSEDDLQLLIKAVNLFPAGTNSRWEVIANYMNIHSSSGVKRTAKDVIGKA [K2R] it was -0.184 ± 0.062.
In the case of SKFWSEDDLQLLIKAVNLFPAGTNSRWEVIANYMNIHSSSGVKRTAKDVIGKA [N3F] it was -0.037 ± 0.14; in that of SKHWSEDDLQLLIKAVNLFPAGTNSRWEVIANYMNIHSSSGVKRTAKDVIGKA [N3H], -0.025 ± 0.11.
For the variant SKIWSEDDLQLLIKAVNLFPAGTNSRWEVIANYMNIHSSSGVKRTAKDVIGKA [N3I], the abundance fitness amounted to 0.021 ± 0.1.
In the case of SKKWSEDDLQLLIKAVNLFPAGTNSRWEVIANYMNIHSSSGVKRTAKDVIGKA [N3K] it was -0.441 ± 0.092; in that of SKLWSEDDLQLLIKAVNLFPAGTNSRWEVIANYMNIHSSSGVKRTAKDVIGKA [N3L], -0.12 ± 0.062.
In the case of SKCWSEDDLQLLIKAVNLFPAGTNSRWEVIANYMNIHSSSGVKRTAKDVIGKA [N3C] it was -0.247 ± 0.14.
Turning to SKVWSEDDLQLLIKAVNLFPAGTNSRWEVIANYMNIHSSSGVKRTAKDVIGKA [N3V], the abundance fitness is -0.227 ± 0.066.
For SKTWSEDDLQLLIKAVNLFPAGTNSRWEVIANYMNIHSSSGVKRTAKDVIGKA [N3T], the abundance fitness is -0.114 ± 0.063.
In the case of SKPWSEDDLQLLIKAVNLFPAGTNSRWEVIANYMNIHSSSGVKRTAKDVIGKA [N3P] it was -0.159 ± 0.083; in that of SKRWSEDDLQLLIKAVNLFPAGTNSRWEVIANYMNIHSSSGVKRTAKDVIGKA [N3R], -0.338 ± 0.063; in that of SKGWSEDDLQLLIKAVNLFPAGTNSRWEVIANYMNIHSSSGVKRTAKDVIGKA [N3G], -0.459 ± 0.066.
In the case of SKEWSEDDLQLLIKAVNLFPAGTNSRWEVIANYMNIHSSSGVKRTAKDVIGKA [N3E] it was -0.554 ± 0.093.
In the case of SKSWSEDDLQLLIKAVNLFPAGTNSRWEVIANYMNIHSSSGVKRTAKDVIGKA [N3S] it was -0.234 ± 0.071; in that of SKWWSEDDLQLLIKAVNLFPAGTNSRWEVIANYMNIHSSSGVKRTAKDVIGKA [N3W], -0.491 ± 0.071; in that of SKDWSEDDLQLLIKAVNLFPAGTNSRWEVIANYMNIHSSSGVKRTAKDVIGKA [N3D], 0.015 ± 0.095.
Turning to TKNWSEDDLQLLIKAVNLFPAGTNSRWEVIANYMNIHSSSGVKRTAKDVIGKA [S1T], the abundance fitness is -0.086 ± 0.093.
In the case of PKNWSEDDLQLLIKAVNLFPAGTNSRWEVIANYMNIHSSSGVKRTAKDVIGKA [S1P] it was -0.547 ± 0.25; in that of WKNWSEDDLQLLIKAVNLFPAGTNSRWEVIANYMNIHSSSGVKRTAKDVIGKA [S1W], -0.721 ± 0.12; in that of HKNWSEDDLQLLIKAVNLFPAGTNSRWEVIANYMNIHSSSGVKRTAKDVIGKA [S1H], -0.348 ± 0.41.
In the case of MKNWSEDDLQLLIKAVNLFPAGTNSRWEVIANYMNIHSSSGVKRTAKDVIGKA [S1M] it was -0.364 ± 0.26; in that of VKNWSEDDLQLLIKAVNLFPAGTNSRWEVIANYMNIHSSSGVKRTAKDVIGKA [S1V], -0.063 ± 0.11; in that of LKNWSEDDLQLLIKAVNLFPAGTNSRWEVIANYMNIHSSSGVKRTAKDVIGKA [S1L], -0.32 ± 0.11.
Turning to FKNWSEDDLQLLIKAVNLFPAGTNSRWEVIANYMNIHSSSGVKRTAKDVIGKA [S1F], the abundance fitness was -0.112 ± 0.14.
In the case of AKNWSEDDLQLLIKAVNLFPAGTNSRWEVIANYMNIHSSSGVKRTAKDVIGKA [S1A] it was -0.372 ± 0.13; in that of CKNWSEDDLQLLIKAVNLFPAGTNSRWEVIANYMNIHSSSGVKRTAKDVIGKA [S1C], -0.261 ± 0.097.
